The data set deals with the molecule itself. Briefly: cryo-EM structure; intact AcMNPV budded virions purified from Sf9 culture, TE buffer (50 mM Tris, 0.5 mM EDTA, pH 8.7); helical reconstruction (C14, 4.2 Å) and localized reconstruction of four neighbouring VP39 dimers of the tube (3.1 Å).

B1: major capsid protein (MCP) (natural protein)
chain: MALVPVGMAPRQMRVNRCIFASIVSFDACITYKSPCSPDAYHDDGWFICNNHLIKRFKMSKMVLPIFDEDDNQFKMTIARHLVGNKERGIKRILIPSATNYQDVFNLNSMMQAEQLIFHLIYNNENAVNTICDNLKYTEGFTSNTQRVIHSVYATTKSILDTTNPNTFCSRVSRDELRFFDVTNARALRGGAGDQLFNNYSGFLQNLIRRAVAPEYLQIDTEELRFRNCATCIIDETGLVASVPDGPELYNPIRSSDIMRSQPNRLQIRNVLKFEGDTRELDRTLSGYEEYPTYVPLFLGYQIINSENNFLRNDFIPRANPNATLGGGAVAGPAPGVAGEAGGGIAV
notes: Major capsid protein VP39 (AC89) of Autographa californica multiple nucleopolyhedrovirus, as it stands in the budded virion; the model comprises Val15 to Asn320 (loop Asp27 to Ser34 built only in some subunits); the last 30 residues are not visible; Native protein in the nucleocapsid of intact budded virions; contains a CCCH zinc finger; also called VP39; AC89; source: AcMNPV budded virions …
B1: the “stoichiometry N” value turned out to be 2.

Values taken from publication PMC11654684, “The nucleocapsid architecture and structural atlas of the prototype baculovirus define the hallmarks of a new viral realm” (Science Advances, 2024).
